This is an account of results in the Immune Epitope Database (IEDB).

The target of test [1] is HLA-B*08:01. Briefly: IEDB peptide-MHC binding, purified MHC/competitive/fluorescence; filed as Kd, often an IC50 or EC50 that approximates it; ≥ and ≤ were set here for values at or beyond the usual limits of such assays.
For test [2], the target named is HLA-B*15:01. The description is as above.
Test [3] has as its target HLA-B*07:02. The test is described as above.
For test [4], the target named is HLA-B*51:01. The description is as above.
Test [5] addresses HLA-A*02:50. The test is described as above.
Test [6] has as its target HLA-A*01:01. Briefly: IEDB peptide-MHC binding, purified MHC/direct/fluorescence; filed as Kd, often an IC50 or EC50 that approximates it; ≥ and ≤ were set here for values at or beyond the usual limits of such assays. The conditions noted are these: source organism: Escherichia coli 536.
Test [7] concerns the target HLA-A*31:01. The description is as above. The conditions noted are these: source organism: Escherichia coli 536.
In test [8] the target is HLA-A*03:01. Described as above. The conditions noted are these: source organism: Escherichia coli.
The target in test [9] is HLA-B*08:01. The test is described as above. The conditions noted are these: source organism: Escherichia coli 536.
For test [10], the target named is HLA-B*15:01. The description is as above. The conditions noted are these: source organism: Escherichia coli.
For test [11], the target named is HLA-B*40:01. The test is described as above. The following applies: source organism: Escherichia coli 536.
The target in test [12] is HLA-B*07:02. The description is as above. The conditions noted are these: source organism: Escherichia coli 536.
The target of test [13] is HLA-A*69:01. Described as above.
Test [14] deals with HLA-B*58:01. Described as above. The following applies: source organism: Escherichia coli 536.
Test [15] deals with HLA-B*27:05. Described as above. The conditions noted are these: source organism: Escherichia coli 536.
The target in test [16] is HLA-A*02:01. The description is as above.
The target in test [17] is HLA-A*11:01. The test is described as above. The following applies: source organism: Escherichia coli 536.
Test [18] addresses HLA-A*26:01. The test is described as above. The conditions noted are these: source organism: Escherichia coli 536.
In test [19] the target is HLA-B*58:01. Put plainly: IEDB peptide-MHC binding, purified MHC/competitive/fluorescence; filed as Kd, often an IC50 or EC50 that approximates it; ≥ and ≤ were set here for values at or beyond the usual limits of such assays. The conditions noted are these: source organism: Escherichia coli.
Test [20] has as its target HLA-B*15:17. The test is described as above. The following applies: source organism: Burkholderia mallei SAVP1.
Test [21] addresses HLA-A*31:01. The description is as above. The following applies: source organism: Burkholderia mallei SAVP1.
The target of test [22] is HLA-A*29:02. The description is as above. The conditions noted are these: source organism: Burkholderia mallei SAVP1.
The target in test [23] is HLA-B*27:03. The description is as above. The conditions noted are these: source organism: Burkholderia mallei SAVP1.
For test [24], the target named is HLA-A*03:01. Described as above. The conditions noted are these: source organism: Burkholderia mallei SAVP1.
Test [25] concerns the target HLA-A*68:02. The description is as above. The following applies: source organism: Burkholderia mallei SAVP1.
The target of test [26] is HLA-A*02:12. The description is as above. The conditions noted are these: source organism: Burkholderia mallei SAVP1.
Test [27] addresses HLA-A*24:03. The description is as above. The conditions noted are these: source organism: Burkholderia mallei SAVP1.
For test [28], the target named is HLA-B*18:01. The test is described as above. The following applies: source organism: Burkholderia mallei SAVP1.
Test [29] concerns the target HLA-B*46:01. The description is as above. The following applies: source organism: Burkholderia mallei SAVP1.
Test [30] addresses HLA-A*69:01. The test is described as above. The following applies: source organism: Burkholderia mallei SAVP1.
In test [31] the target is HLA-A*23:01. The description is as above. The following applies: source organism: Burkholderia mallei SAVP1.
Test [32] has as its target HLA-A*02:16. The description is as above. The conditions noted are these: source organism: Burkholderia mallei SAVP1.
Test [33] deals with HLA-A*02:01. The description is as above. The following applies: source organism: Burkholderia mallei SAVP1.
The target in test [34] is HLA-B*57:01. The test is described as above. The following applies: source organism: Burkholderia mallei SAVP1.
Test [35] has as its target HLA-A*02:03. The test is described as above. The following applies: source organism: Burkholderia mallei SAVP1.
The target of test [36] is HLA-A*02:19. The description is as above. The following applies: source organism: Burkholderia mallei SAVP1.
Test [37] addresses HLA-A*26:01. The description is as above. The following applies: source organism: Burkholderia mallei SAVP1.
In test [38] the target is HLA-A*02:11. The test is described as above. The following applies: source organism: Burkholderia mallei SAVP1.
The target in test [39] is HLA-B*39:01. The description is as above. The conditions noted are these: source organism: Burkholderia mallei SAVP1.
The target of test [40] is HLA-A*02:11. Briefly: IEDB peptide-MHC binding, purified MHC/direct/fluorescence; filed as Kd, often an IC50 or EC50 that approximates it; ≥ and ≤ were set here for values at or beyond the usual limits of such assays. The conditions noted are these: source organism: Yersinia enterocolitica subsp. enterocolitica 8081.
The mark [41] stands for this setting: source organism: Salmonella enterica subsp. enterica serovar Paratyphi B str. SPB7.
Setting [42] is: source organism: Escherichia coli.
Setting [43] is: source organism: Burkholderia mallei SAVP1.
The mark [44] stands for this setting: source organism: Yersinia pestis.

Bounds are passed on as bounds.

Consider LPLAKPMVI, for which the Kd – broadly, the concentration at which binding is half-saturated – in [1] (setting [41]) is 0.211 µM; in test [2] (setting [41]), at least 20 µM; in test [3] (setting [41]), 0.0624 µM; in test [4] (setting [41]) it was 0.626 µM.

For the sequence RMYGISPWT, the Kd in test [5] (setting [42]) is 0.0184 µM; in test [6], at least 20 µM; in [7] it was at least 20 µM; in test [8], 0.799 µM; in test [9], at least 20 µM; in test [10], 0.455 µM. Further, the equilibrium dissociation constant (Kd) in test [11] is at least 20 µM; in test [12] it was at least 20 µM; in test [13] (source organism: Escherichia coli 536), at least 20 µM; in [14], at least 20 µM; in test [15], at least 20 µM; in [16] (setting [42]), 0.507 µM. The dissociation constant (Kd) in [17] and in test [18] was at least 20 µM in each case.

With RAAPLMQSL, the Kd in [1] (setting [42]) was at least 20 µM; in [3] (setting [42]) it was 0.012 µM; in [19], 0.0293 µM.

Consider RFNAIWFNH, for which the dissociation constant Kd is at least 20 µM in [20]; 0.0041 µM in test [21]; at least 20 µM in [22]; at least 20 µM in test [23]; at least 20 µM in [24]; at least 20 µM in test [25]. Further, the Kd in [2] (setting [43]), in test [26], in test [27], in [28], in [29] and in test [30] was at least 20 µM throughout. Also, the Kd in test [31], in [32], in test [33], in test [4] (setting [43]), in [34] and in test [35] was at least 20 µM in each case. For the same sequence, the Kd in test [36], in test [37], in test [38] and in test [39] was at least 20 µM throughout.

As to FLRFGDFKL, the Kd was at most 0.0001 µM in test [5] (source organism: Yersinia pestis Nepal516), 18.3 µM in [13] (setting [44]), 0.0055 µM in [16] (setting [44]) and 0.104 µM in test [40].
